These results are taken from paper PMC9823235 (The Journal of Biological Chemistry, 2022).

One may read the stoichiometry N as the number of molecules, sites or subunits per partner or assembly.

The data set deals with the molecule itself. Put plainly: cryo-EM structure.

B1: B subunit of Stx2a ([change]), pentameric (natural protein)
chain: ADCAKGKIEFSKYNEDDTFTVKVDGKEYWTSRWNLQPLLQSAQLTGMTVTIKSSTCESGSGFAEVQFNND
Consider B1, for which the “stoichiometry N” value came to 5.
